# Reference: patent publication US20140134180A1 (E R SQUIBB AND SONS L L C, published 2014)
# T1: human O8E, full length, on cells (human, UniProt Q7Z7D3 25-282)
# T1 construct: also called B7H4; B7S1
# T1 sequence: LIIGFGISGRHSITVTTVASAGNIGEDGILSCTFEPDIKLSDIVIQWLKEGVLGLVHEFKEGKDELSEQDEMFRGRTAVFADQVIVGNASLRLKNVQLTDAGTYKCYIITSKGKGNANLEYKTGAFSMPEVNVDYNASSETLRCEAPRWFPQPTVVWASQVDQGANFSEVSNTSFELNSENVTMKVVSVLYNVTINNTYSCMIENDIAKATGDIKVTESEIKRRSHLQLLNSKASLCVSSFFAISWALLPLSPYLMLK
# B1: 12E1 human monoclonal antibody (antibody, V domains shown)
# VH: EVQLVESGGGLVQPGRSLRLSCVASGFTFDDYAMHWVRQAPGKGLEWVSGISWNSGSIGYADSVKGRFTISRDNAKNSLYLQMNSLRAEDTALYYCTKALYGSGSSDFYYYGMDVWGQGTTVAVSS
# VL: EIVLTQSPATLSLSPGERATLSCRASQSVSSYLAWYQQKPGQAPRLLIYDASNRATGIPARFSGSGSGTDFTLTISSLEPEDFAVYYCQQRRTFGQGTKVEIK
# notes: Human IgG from a hybridoma of mice carrying a human kappa transgene; also called 12E1.G9
# B2: 13D12 human monoclonal antibody (antibody, V domains shown)
# VH: QVQLQQWGAGLLKPSETLSLTCAVYGGSFSGYYWSWIRQPPGKGLEWIGKINHSGSTNYNPSLKSRVTISVDTSKNQFSLKLNSVTAADTAVYYCARELRYFENYYYGMDVWGQGTTVTVSS
# VL: not shown
# notes: Human IgG from a hybridoma of mice carrying a human kappa transgene; also called 13D12.G10
# B3: 2A7 human monoclonal antibody (antibody, V domains shown)
# VH: EVQLVESGGGLIQPGGSLRLSCAASGFTVSSNYMNWVRQAPGKGLEWVSVIYGSGRTYYADSVKGRVTISRDNSKNTLYLQMNSLRAEDTAVYYCARDTYAMDVWGQGTTVTVSS
# VL: not shown
# notes: Human IgG from a hybridoma of mice carrying a human kappa transgene; Fitcylated for immunohistochemistry; also called 2A7.C11; 2A7/C11
# B4: 1G11 human monoclonal antibody (antibody, V domains shown)
# VH: QVQLQQWGAGLLKPSETLSLTCAVYGGSFSDYFWTWIRQPPGKGLEWIGEINHSGTTNYNPSLKSRVTISADTSKNQFSLRLSSVTAADTAVYYCARLSSWSNWAFEYWGQGTLVTVSS
# VL: EIVLTQFPGTLSLSPGERATLSCRASQSVSSTYLAWYQQKPGQAPRVLIYGASRRATGIPDRFSGSGSGTDFTLTISRLEPEDFAVYYCQQYGSSPLTFGGGTKVEIK
# notes: Human IgG from a hybridoma of mice carrying a human kappa transgene; also called 1G11.H11-FITC; 1G11.H1
# Key:
# [1] = target: T1, human O8E, full length, on cells; test: titration of labelled antibody on O8E-transfected cells, sigmoidal dose response fit; bottom and top fixed for incomplete curve; qualitative ranking
# Experimental: (§1) HEK cells were transfected with full length O8E using standard techniques and grown in RPMI media containing 10% fetal bovine serum (FBS). […] Millipore plates (MAFB NOB) were coated with 1% nonfat dry milk in water and stored a 4° C. overnight. The plates were washed three times with 0.2 ml of binding buffer. Fifty microliters of buffer alone was added to the maximum binding wells (total binding). Twenty-five microliters of buffer alone was added to the control wells (non-specific binding). Varying concentration of ¹²⁵I-anti-O8E antibody was added to all wells in a volume of 25 μl. (In some cases FITC labeled antibodies were used for the titration since unlabeled material was not available, binding may be compromised in these instances.) Varying concentrations of unlabeled antibody at 100 fold excess was added in a volume of 25 μl to control wells and 25 μl of O8E transfected CHO cells (2×10⁶ cells/ml) in binding buffer were added to all wells. The plates were incubated for 2 hours at 200 RPM on a shaker at 4° C. At the completion of the incubation the Millipore plates were washed three times with 0.2 ml of cold wash buffer (24 mM Tris pH 7.2, 500 mM NaCl, 2.7 mM KCl, 2 mM Glucose, 1 mM CaCl₂, 1 mM MgCl₂, 0.1% BSA.). The filters were removed and counted in a gamma counter. […]
# Penta-B7H4 = target: T2, Penta-B7H4 ( for this construct); test: ELISA: anti-mouse Fc coat, monoclonal anti-C9 (0.6 ug/ml), Penta-B7H4 titrated 4000 to 2.0 ng/ml, human antibody at 1 ug/ml; the value is a concentration of Penta-B7H4, not of antibody [panel B]
# T2 construct: also called Penta-O8E; Penta-B7H4-C9
# Experimental: An ELISA plate was coated with anti-mouse Fc, followed by monoclonal anti-C9 (0.6 ug/ml), then titrated Penta-B7H4 as indicated, then the human antibodies at 1 ug/ml.
# [2] = target: T1, human O8E, full length, on cells; test: titration of labelled antibody on O8E-transfected cells, sigmoidal dose response fit; qualitative ranking
# Experimental: as §1
# [3] = target: T1, human O8E, full length, on cells; test: titration of labelled antibody on O8E-transfected cells, sigmoidal dose response fit; FITC-labelled antibody; qualitative ranking
# Experimental: as §1
binder,measurement,setting,value
B1,EC50,[1],~19.8 nM
same,EC50 (read off the curve),Penta-B7H4,~0.05 µg/mL
B2,EC50,[2],0.746 nM
B3,EC50 (read off the curve),Penta-B7H4,~0.04 µg/mL
B4,EC50,[3],1.69 nM
